Reference: US20250277199, “NOVEL CRISPR-CAS NUCLEASES FROM METAGENOMES” (Brain Biotech AG, published 2025)

Biological target: T1, BMC01 (uncultured bacterium (metagenome))
T1 chain: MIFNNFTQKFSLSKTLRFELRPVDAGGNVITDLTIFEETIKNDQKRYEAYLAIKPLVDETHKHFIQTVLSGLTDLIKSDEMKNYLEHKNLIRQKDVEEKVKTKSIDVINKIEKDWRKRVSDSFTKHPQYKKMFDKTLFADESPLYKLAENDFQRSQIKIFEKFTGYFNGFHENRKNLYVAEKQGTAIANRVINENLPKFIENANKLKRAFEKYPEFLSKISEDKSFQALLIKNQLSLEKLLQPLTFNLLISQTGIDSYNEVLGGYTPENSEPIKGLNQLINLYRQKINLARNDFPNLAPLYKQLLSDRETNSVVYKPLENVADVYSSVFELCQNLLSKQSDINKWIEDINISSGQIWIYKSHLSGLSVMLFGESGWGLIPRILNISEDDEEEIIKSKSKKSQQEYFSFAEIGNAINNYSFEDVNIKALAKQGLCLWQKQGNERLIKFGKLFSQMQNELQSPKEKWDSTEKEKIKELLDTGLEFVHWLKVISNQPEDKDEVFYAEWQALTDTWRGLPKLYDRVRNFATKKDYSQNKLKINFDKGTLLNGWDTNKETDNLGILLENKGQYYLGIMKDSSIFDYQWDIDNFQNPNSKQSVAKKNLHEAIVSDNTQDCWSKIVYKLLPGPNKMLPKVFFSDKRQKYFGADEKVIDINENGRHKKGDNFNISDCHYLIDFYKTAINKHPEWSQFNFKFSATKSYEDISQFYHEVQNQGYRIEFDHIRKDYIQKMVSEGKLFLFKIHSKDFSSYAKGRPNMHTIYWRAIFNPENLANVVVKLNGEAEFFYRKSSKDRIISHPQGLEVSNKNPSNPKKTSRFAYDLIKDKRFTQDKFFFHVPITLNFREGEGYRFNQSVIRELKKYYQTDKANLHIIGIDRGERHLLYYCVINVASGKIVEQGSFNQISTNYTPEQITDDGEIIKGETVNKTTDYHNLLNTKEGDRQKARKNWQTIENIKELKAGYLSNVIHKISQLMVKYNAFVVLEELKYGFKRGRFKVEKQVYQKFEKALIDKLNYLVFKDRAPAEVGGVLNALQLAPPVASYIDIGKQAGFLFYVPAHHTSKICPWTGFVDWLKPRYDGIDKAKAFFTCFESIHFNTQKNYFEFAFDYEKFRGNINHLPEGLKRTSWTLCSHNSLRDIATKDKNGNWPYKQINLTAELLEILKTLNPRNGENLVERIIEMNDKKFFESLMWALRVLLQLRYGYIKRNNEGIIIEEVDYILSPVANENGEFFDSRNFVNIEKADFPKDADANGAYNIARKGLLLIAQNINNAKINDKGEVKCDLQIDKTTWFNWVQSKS
Assay: cell_activity; PAM not stated; E. coli depletion, 30 C
Procedure, shortened: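 E. coli carrying arabinose-induced (0.2%) BMC nuclease, grown at 30° C., made electrocompetent and electroporated with 50-100 ng plasmid carrying gRNA against malQ. Transformants plated on selective M9-glucose agar with kanamycin/ampicillin (± nourseothricin), and growth scored after 48 h at 30° C.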

B1: malQ gRNA (BMC stem-loop + 24 nt spacer) ; malQ protospacer (ssRNA ; dsDNA)
RNA: GAUUUCUACUAUUGUAGAUGUGGCGGUACGUUGAUGCAUCGCG
DNA 1: GTGGCGGTACGTTGATGCATCGCG
DNA 2: CGCGATGCATCAACGTACCGCCAC
- activity: > 99.9 % colony reduction
